Publication PMC5701637, “Identification and Analysis of Novel Inhibitors against NS3 Helicase and NS5B RNA-Dependent RNA Polymerase from Hepatitis C Virus 1b (Con1)”

Target: NS3 helicase (NS3h) (Hepatitis C virus genotype 1b (Con1), UniProt Q9WMX2 1193-1660)
Experiment: fluorescence polarization; 5 nM DNA, 15 nM NS3h, 1.25 mM MgCl2; FP: 25 mM MOPS pH 7.5, 1.25 mM MgCl2, 0.0025 mg/mL BSA, 0.005% Tween 20, 0.025 mM DTT, 1% DMSO, temperature not stated; EMSA: 50 mM Tris-Cl pH 7.4, 10% glycerol, 0 C, 20 min
Details: protein: recombinant; tags: His tag (pET21b(+), HisTrap purified); single strand

NS3 helicase (NS3h), sequence (Q9WMX2 1193-1660): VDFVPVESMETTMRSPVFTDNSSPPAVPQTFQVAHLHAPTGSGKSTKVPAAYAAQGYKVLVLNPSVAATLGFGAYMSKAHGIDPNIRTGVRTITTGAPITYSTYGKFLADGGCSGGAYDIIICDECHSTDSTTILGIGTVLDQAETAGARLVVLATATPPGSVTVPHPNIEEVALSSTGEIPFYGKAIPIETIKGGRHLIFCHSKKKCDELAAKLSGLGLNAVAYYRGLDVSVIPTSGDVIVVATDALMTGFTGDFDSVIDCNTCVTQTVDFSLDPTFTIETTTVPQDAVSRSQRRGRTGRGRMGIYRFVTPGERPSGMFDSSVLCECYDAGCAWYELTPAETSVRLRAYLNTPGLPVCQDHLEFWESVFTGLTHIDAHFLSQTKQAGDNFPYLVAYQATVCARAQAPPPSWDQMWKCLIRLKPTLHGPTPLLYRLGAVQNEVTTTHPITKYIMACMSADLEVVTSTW

TTTTTTTTTTTTTTT (ssDNA) [Cy5-dT15]
binding result: binds
